Key:
[1] = BHET released, HPLC; higher = more BHET released; extreme values may be limits of the assay; details: 24 h
Description: (§1)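 Purified PET hydrolases, 2.5 ug enzyme on 3.5 mg amorphous PET film (aFilm) or crystalline PET powder (cryPow) in 0.5 mL of 50 mM buffer (NaCitrate pH 4.5/5.5, NaPhosphate 6.5/7.5, glycine 8.5/9.5) at 60 or 70 C with shaking for 24 h. Total aromatic product by UV-Vis (260/280 nm, blank-subtracted, normalised per mg enzyme) and individual TPA, MHET, BHET concentrations by UHPLC-DAD at 240 nm; duplicate reactions.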

[2] = MHET released, HPLC; higher = more MHET released; extreme values may be limits of the assay; details: 24 h
Description: as §1

[3] = terephthalic acid (TPA) released, HPLC; higher = more TPA released; extreme values may be limits of the assay; details: 24 h
Description: as §1

[4] = PET hydrolysis product formed (TPA+MHET+BHET, UV-Vis) per mg enzyme (mmol/mg enzyme); higher = more PET depolymerisation activity; extreme values may be limits of the assay; details: 2 h
Description: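 Purified PET hydrolases (His-SUMO cleaved, E. coli C41(DE3) small-scale expression), 2.5 ug enzyme on 3.5 mg amorphous PET film (aFilm) or crystalline PET powder (cryPow) in 0.5 mL of 50 mM buffer (NaCitrate pH 4.5/5.5, NaPhosphate 6.5/7.5, glycine 8.5/9.5) at 60 or 70 C with shaking for 2 h. Soluble aromatic products (TPA+MHET+BHET) were quantified by UV-Vis at 260/280 nm, blank-subtracted against the no-enzyme control, and normalised per mg enzyme; duplicate reactions.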

QTNPYARGPNPTAASLEASAGPFTVRSFTVARPVGYGAGTVYYPTNAGGTVGAIAIVPGYTATQSSINWWGPRLASHGFVVITIDTNSTLDKPESRSSQQMAALRQVASLNGTSSSPIYGKVDTARGGVMGWSMGGGGSLISAANNPSLKAAAVMAPWHSSTNFSSVTVPTLIFACENDRIAPVKEYALPIYDSMSLNAKQFLEICGGSHSCACSGNSNQALIGMKGVAWMKRFMDNDTRYSQFACENPNSTAVCDFRTANCS [HotPETase]
Details | BHET released, [1] [mM] | MHET released, [2] [mM] | PET hydrolysis product formed, [4] | terephthalic acid, [3] [mM]
PET substrate: aFilm, 60 °C, pH 4.5 | 0 | 0 | 0 | 0
PET substrate: aFilm, 60 °C, pH 5.5 | 0 | 0.282 | 0 | 0.359
PET substrate: aFilm, 60 °C, pH 6.5 | 0 | 0.534 | 0.0257 | 0.226
PET substrate: aFilm, 60 °C, pH 7.5 | 0.045 | 3.07 | 0.0712 | 1.04
PET substrate: aFilm, 60 °C, pH 8.5 | 0 | 0.303 | 0.0455 | 0.135
PET substrate: aFilm, 60 °C, pH 9.5 | 0 | 1.8 | 0.0961 | 1.35
PET substrate: aFilm, 70 °C, pH 4.5 | 0 | 0 | 0 | 0
PET substrate: aFilm, 70 °C, pH 5.5 | 0 | 0 | 0 | 0.00384
PET substrate: aFilm, 70 °C, pH 6.5 | 0 | 0.0858 | 0.00383 | 0.0729
PET substrate: aFilm, 70 °C, pH 7.5 | 0 | 0.198 | 0.0174 | 0.17
PET substrate: aFilm, 70 °C, pH 8.5 | 0 | 0.121 | 0.0193 | 0.0776
PET substrate: aFilm, 70 °C, pH 9.5 | 0 | 0.077 | 0.092 | 0.684
PET substrate: cryPow, 60 °C, pH 4.5 | 0 | 0 | 0.00338 | 0.0209
PET substrate: cryPow, 60 °C, pH 5.5 | 0.0125 | 0.43 | 0.0775 | 0.1228
PET substrate: cryPow, 60 °C, pH 6.5 | 0.00555 | 0.527 | 0.106 | 0.157
PET substrate: cryPow, 60 °C, pH 7.5 | 0 | 0.655 | 0.131 | 0.3121
PET substrate: cryPow, 60 °C, pH 8.5 | 0 | 0.319 | 0.0736 | 0.211
PET substrate: cryPow, 60 °C, pH 9.5 | 0 | 0.174 | 0.0954 | 0.681
PET substrate: cryPow, 70 °C, pH 4.5 | 0 | 0 | 0 | 0
PET substrate: cryPow, 70 °C, pH 5.5 | 0 | 0.163 | 0.05472 | 0.07122
PET substrate: cryPow, 70 °C, pH 6.5 | 0.00798 | 0.386 | 0.0748 | 0.118
PET substrate: cryPow, 70 °C, pH 7.5 | 0 | 0.249 | 0.109 | 0.262
PET substrate: cryPow, 70 °C, pH 8.5 | 0 | 0.268 | 0.0678 | 0.113
PET substrate: cryPow, 70 °C, pH 9.5 | 0 | 0.0221 | 0.0796 | 0.489

QTNPYARGPNPTAASLEASAGPFTVRSFTVSRPSGYGAGTVYYPTNAGGTVGAIAIVPGYTARQSSIKWWGPRLASHGFVVITIDTNSTFDYPSSRSSQQMAALRQVASLNGDSSSPIYGKVDTARMGVMGHSMGGGASLRSAANNPSLKAAIPQAPWDSQTNFSSVTVPTLIFACENDSIAPVNSHALPIYDSMSRNAKQFLEINGGSHSCANSGNSNQALIGKKGVAWMKRFMDNDTRYSTFACENPNSTAVSDFRTANCS [DuraPETase]
Details | BHET released, [1] [mM] | MHET released, [2] [mM] | PET hydrolysis product formed, [4] | terephthalic acid, [3] [mM]
PET substrate: aFilm, 60 °C, pH 4.5 | 0 | 0 | 0 | 0.00462
PET substrate: aFilm, 60 °C, pH 5.5 | 0 | 0 | 0 | 0
PET substrate: aFilm, 60 °C, pH 6.5 | 0 | 0 | 0 | 0
PET substrate: aFilm, 60 °C, pH 7.5 | 0.0050186 | 0.182 | 0 | 0.102
PET substrate: aFilm, 60 °C, pH 8.5 | 0 | 0.099 | 0 | 0.0886
PET substrate: aFilm, 60 °C, pH 9.5 | 0 | 0.152 | 0.0223 | 0.344
PET substrate: aFilm, 70 °C, pH 4.5 | 0 | 0 | 0 | 0
PET substrate: aFilm, 70 °C, pH 5.5 | 0 | 0 | 0 | 0
PET substrate: aFilm, 70 °C, pH 6.5 | 0 | 0 | 0 | 0
PET substrate: aFilm, 70 °C, pH 7.5 | 0 | 0.00907 | 0 | 0.0128
PET substrate: aFilm, 70 °C, pH 8.5 | 0 | 0.00981 | 0 | 0.0158
PET substrate: aFilm, 70 °C, pH 9.5 | 0 | 0 | 0.0191 | 0.0892
PET substrate: cryPow, 60 °C, pH 4.5 | 0 | 0 | 0 | 0
PET substrate: cryPow, 60 °C, pH 5.5 | 0 | 0 | 0 | 0
PET substrate: cryPow, 60 °C, pH 6.5 | 0 | 0.0436 | 0 | 0.00832
PET substrate: cryPow, 60 °C, pH 7.5 | 0.00475 | 0.21 | 0.0496 | 0.0835
PET substrate: cryPow, 60 °C, pH 8.5 | 0 | 0.169 | 0.032 | 0.0926
PET substrate: cryPow, 60 °C, pH 9.5 | 0 | 0.123 | 0.0701 | 0.384
PET substrate: cryPow, 70 °C, pH 4.5 | 0 | 0 | 0 | 0
PET substrate: cryPow, 70 °C, pH 5.5 | 0 | 0 | 0 | 0
PET substrate: cryPow, 70 °C, pH 6.5 | 0 | 0.0107 | 0 | 0
PET substrate: cryPow, 70 °C, pH 7.5 | 0 | 0.0884 | 0.0447 | 0.12
PET substrate: cryPow, 70 °C, pH 8.5 | 0 | 0.0546 | 0.0151 | 0.0557
PET substrate: cryPow, 70 °C, pH 9.5 | 0 | 0 | 0.0191 | 0.0155
